Patent US20220259330A1 (SUNSHINE GUOJIAN PHARMACEUTICAL SHANGHAI, published 2022)
Positions count from the first letter of the chain named. In names and notes the source's numbering stands. Several values for one entry are separate records, joined by “and”; a condition that tells them apart may be missing. Equal values may be shown once. One block for each binder: values may come before it.

How the values were obtained:
LAG3-ECD-His [1] = biological target: T1, LAG3-ECD-His (human, UniProt P18627 23-450); experiment: ELISA, LAG3-ECD-His coated
T1 construct: extracellular domain; Bought; not shown: polyhistidine tag
T1 sequence (looked up): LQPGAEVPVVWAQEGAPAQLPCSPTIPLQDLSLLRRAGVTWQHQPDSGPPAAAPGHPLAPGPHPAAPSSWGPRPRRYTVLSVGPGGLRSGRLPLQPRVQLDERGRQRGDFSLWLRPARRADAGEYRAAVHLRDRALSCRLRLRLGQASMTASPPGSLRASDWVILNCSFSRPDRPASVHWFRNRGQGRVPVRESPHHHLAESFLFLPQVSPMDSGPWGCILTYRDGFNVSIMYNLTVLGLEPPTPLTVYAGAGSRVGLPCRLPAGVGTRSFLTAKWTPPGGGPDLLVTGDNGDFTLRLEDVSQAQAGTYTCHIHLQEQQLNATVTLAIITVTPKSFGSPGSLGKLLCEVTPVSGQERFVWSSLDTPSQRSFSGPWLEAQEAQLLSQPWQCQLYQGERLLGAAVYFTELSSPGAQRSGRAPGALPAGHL

LAG3-ECD-His [2] = biological target: T1, LAG3-ECD-His; experiment: ELISA, plate coated with LAG3-ECD-His
[3] = biological target: T2, TGF-β1 (Sino Biological, Cat. No. 10804-HNAC) (UniProt P01137 279-390); experiment: bridging ELISA: TGF-β1 coated, antibody titrated, biotinylated human PD-1 and streptavidin-HRP for detection
T2 sequence (P01137 279-390 limits assumed): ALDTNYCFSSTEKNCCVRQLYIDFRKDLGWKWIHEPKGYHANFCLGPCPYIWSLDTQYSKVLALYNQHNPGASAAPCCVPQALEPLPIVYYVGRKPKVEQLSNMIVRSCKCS

PD1-His [4] = biological target: T3, PD1-His (human, UniProt Q15116 25-170); experiment: ELISA, plate coated with PD1-His
T3 construct: extracellular domain; In-house protein; also called extracellular domain protein of human PD-1 with a 6*His tag
T3 sequence (Q15116 other isoform, or with tags, fused parts or gaps): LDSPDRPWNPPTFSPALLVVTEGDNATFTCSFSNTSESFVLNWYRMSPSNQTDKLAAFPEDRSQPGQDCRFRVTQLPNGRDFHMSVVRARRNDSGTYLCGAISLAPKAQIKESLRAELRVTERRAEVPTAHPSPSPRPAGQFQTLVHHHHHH

[5] = biological target: T4, biotinylated human PD-1 extracellular recombinant protein (Sino Biological, Cat. No. 10377-H08H-B) (human, UniProt Q15116 25-170, biotinylated); experiment: bridging ELISA: TGF-β1 coated, antibody titrated, biotinylated human PD-1 and streptavidin-HRP for detection
T4 construct: extracellular domain; Bought; detection reagent in the bridging ELISAs
T4 sequence (Q15116 25-170): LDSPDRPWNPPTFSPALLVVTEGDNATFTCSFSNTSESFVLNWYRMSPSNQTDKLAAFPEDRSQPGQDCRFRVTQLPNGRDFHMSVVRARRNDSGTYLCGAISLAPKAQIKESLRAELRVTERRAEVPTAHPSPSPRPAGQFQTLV

[6] = biological target: T2, TGF-β1 (Sino Biological, Cat. No. …); experiment: ELISA, plate coated with TGF-β1
VEGF165-His = biological target: T5, VEGF165-His (human, UniProt P15692-4 27-191); experiment: ELISA, VEGF165-His coated at 10 ng/well
T5 construct: also called Human VEGF165 with a 6*His tag
T5 sequence: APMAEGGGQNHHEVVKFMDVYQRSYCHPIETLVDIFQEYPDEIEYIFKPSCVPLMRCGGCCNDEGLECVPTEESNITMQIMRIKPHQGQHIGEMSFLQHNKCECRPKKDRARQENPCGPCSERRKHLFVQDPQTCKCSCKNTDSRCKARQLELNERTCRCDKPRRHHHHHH

[7] = biological target: T4, biotinylated human PD-1 extracellular …; experiment: bridging ELISA: VEGF165 coated, antibody titrated, biotinylated human PD-1 at 200 ng/ml and streptavidin-HRP for detection
PD1-His [8] = biological target: T3, PD1-His; experiment: SPR, Biacore 8K, antibody captured on Protein A/G chip, PD1-His injected
[9] = biological target: T6, recombinant VEGF165 (Acrobiosystems, Cat. No. VE5-H4210) (UniProt P15692-4 27-191); experiment: bridging ELISA: VEGF165 coated, antibody titrated, biotinylated human PD-1 at 200 ng/ml and streptavidin-HRP for detection
T6 construct: Bought; construct not described

[10] = biological target: T4, biotinylated human PD-1 extracellular …; experiment: bridging ELISA: plate coated with TGF-β1, antibody titrated, detected with biotinylated human PD-1 ECD and Streptavidin-HRP; antibody first captured on plate-coated TGF-β1

EC50 (read off the curve) (LAG3-ECD-His [1]): ~0.1 nM
EC50 (LAG3-ECD-His [2]): 0.147 nM
B1: 5E7-Hu (antibody, human IgG4 S228P, kappa, V domains shown)
VH: EVQLVESGGGLVKPGGSLRLSCAASGFTFSDDYMAWFRQAPGKRLEWVASISHGGDYIYYADNLKGRFTISRDNAKNSLYLQMNSLRAEDTAVYFCSRDRRSIDYWGQGTLVTVSS
VL: DIQMTQSPSSLSASVGDRVTITCRASQDISNYLSWYQQKPGKTIKLLIYYTSRLHSGVPSRFSGSGSGTDYTFTISSLQPEDIATYFCQQGKTLPYTFGQGTKVEIKR
notes: Humanized anti-human LAG-3, IgG4 (S228P), kappa; also called 5E7-Hu-HC+5E7-Hu-LC

binding result [3]: no binding
EC50 (PD1-His [4]): 0.392 nM and 0.432 nM
B2: 14-Hu (antibody, human IgG4 S228P, kappa, V domains shown)
VH: QVQLVQSGAEVKKPGASVKVSCKASGYSFTGYTMNWVRQAPGQGLEWIGLINPYNGDTSYNQKFKGRATVTVDKSTSTAYMELSSLRSEDTAVYYCARWRYTMDYWGQGTLVTVSS
VL: DIVLTQSPASLAVSPGQRATITCRASESVDNYGNSFMNWYQQKPGQPPKPLIYFASNLESGVPARFSGSGSRTDFTLTINPVEADDTANYYCQQNNEAPPTFGQGTKVEIKR
notes: Humanized anti-PD-1, IgG4 (S228P), kappa; also called 14-Hu-HC+14-Hu-LC

binding result [5]: no binding
EC50 [6]: 0.0711 nM and 0.0803 nM
B3: mAb127-HC+14-Hu-LC (antibody, human IgG4 S228P, kappa, V domains shown)
VH: QVQLVQSGAEVKKPGASVKVSCKASGYTFTSEWMNWVRQAPGQGLEWMGQIFPALGSTNYNEMYEGRVTMTTDTSTSTAYMELRSLRSDDTAVYYCARGIGNYALDAMDYWGQGTLVTVSS
VL: B2 VL
notes: Hybrid antibody

EC50 (PD1-His [4]): 0.625 nM and 0.975 nM
binding result (VEGF165-His): no binding
B4: 20-Hu-HC+601-LC (antibody, human IgG4 S228P, kappa, V domains shown)
VH: EVQLVESGGGLVQPGGSLRLSCAASGFVFSNYDMSWVRQAPGKRLEWVATISGGGGYTYYSDSVKGRFTISRDNAKNSLYLQMNSLRAEDTAVYYCASPYGHYGFEYWGQGTLVTVSS
VL: DIQMTQSPSSLSASVGDRVTITCSASQDISNYLNWYQQKPGKAPKVLIYFTSSLHSGVPSRFSGSGSGTDFTLTISSLQPEDFATYYCQQYSTVPWTFGQGTKVEIKR
notes: Hybrid antibody

binding result [7]: no binding
B5: 601 (antibody, human IgG1, kappa, V domains shown)
VH: EVQLVESGGGLVQPGGSLRLSCAASGYTFTNYGMNWVRQAPGKGLEWVGWINTYTGEPTYAADFKRRFTFSLDTSKSTAYLQMNSLRAEDTAVYYCAKYPHYYGSSHWYFDVWGQGTLVTVSS
VL: B4 VL
notes: Anti-VEGF, IgG1, kappa; also called Bevacizumab

Kd (PD1-His [8]): 1.59 nM
koff (PD1-His [8]): 4.54e-05 s⁻¹
kon (PD1-His [8]): 28600 M⁻¹ s⁻¹
binding result [9]: no binding
EC50 (PD1-His [4]): 0.308 nM and 0.331 nM
B6: 20-Hu-HC+601-LC-V94L (antibody, human IgG4 S228P, kappa, V domains shown)
VH: B4 VH
VL: B4 VL with V94L

EC50 (PD1-His [4]): 0.206 nM
binding result (VEGF165-His): no binding
B7: 20-Hu (antibody, human IgG4 S228P, kappa, V domains shown)
VH: B4 VH
VL: B1 VL with R24S, D28G, Y32F, I44V, R53S, F87Y, G91Y, K92S, T93N, Y96W
notes: Humanized anti-human PD-1, IgG4 (S228P), kappa; also called 20-Humanized; 20-Hu-HC+20-Hu-LC

EC50 [10]: 0.278 nM
EC50 (PD1-His [4]): 0.387 nM
EC50 [6]: 0.152 nM
B8: 14-Fab-127-IgG4 (bispecific antibody)
heavy: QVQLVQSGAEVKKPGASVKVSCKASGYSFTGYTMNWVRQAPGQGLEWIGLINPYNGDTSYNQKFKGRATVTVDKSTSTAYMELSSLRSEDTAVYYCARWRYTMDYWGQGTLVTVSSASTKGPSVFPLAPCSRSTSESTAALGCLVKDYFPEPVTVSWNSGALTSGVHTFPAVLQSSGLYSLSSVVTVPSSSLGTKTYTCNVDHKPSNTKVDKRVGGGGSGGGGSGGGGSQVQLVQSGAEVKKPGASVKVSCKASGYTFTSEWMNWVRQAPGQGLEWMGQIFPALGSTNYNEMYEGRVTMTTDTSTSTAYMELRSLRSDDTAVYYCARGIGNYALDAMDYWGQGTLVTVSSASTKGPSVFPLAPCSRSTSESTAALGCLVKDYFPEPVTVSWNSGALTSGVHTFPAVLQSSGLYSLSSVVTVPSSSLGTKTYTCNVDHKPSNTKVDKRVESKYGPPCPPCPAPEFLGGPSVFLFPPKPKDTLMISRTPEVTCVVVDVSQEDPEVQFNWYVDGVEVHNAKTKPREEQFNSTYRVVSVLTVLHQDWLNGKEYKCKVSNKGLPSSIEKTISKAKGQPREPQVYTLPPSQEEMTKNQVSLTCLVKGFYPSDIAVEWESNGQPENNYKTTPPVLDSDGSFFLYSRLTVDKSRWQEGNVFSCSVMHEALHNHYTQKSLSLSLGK
light: DIVLTQSPASLAVSPGQRATITCRASESVDNYGNSFMNWYQQKPGQPPKPLIYFASNLESGVPARFSGSGSRTDFTLTINPVEADDTANYYCQQNNEAPPTFGQGTKVEIKRTVAAPSVFIFPPSDEQLKSGTASVVCLLNNFYPREAKVQWKVDNALQSGNSQESVTEQDSKDSTYSLSSTLTLSKADYEKHKVYACEVTHQGLSSPVTKSFNRGEC
